Results as given in patent US20230266317A1 (published 2023).

Experiments:
Assay in all cases: cell-based or functional assay
[1] = biological target: UspA2H of M. catarrhalis AERIS isolate 415, on bacteria (Moraxella catarrhalis)
[2] = biological target: UspA2H of M. catarrhalis AERIS isolate 296, on bacteria (Moraxella catarrhalis)
[3] = biological target: UspA2 of M. catarrhalis Denmark isolate BBH18 (wild type), on bacteria (Moraxella catarrhalis)
[4] = biological target: T1, UspA2 of M. catarrhalis Dutch isolate F10, on bacteria (Moraxella catarrhalis)
T1 chain: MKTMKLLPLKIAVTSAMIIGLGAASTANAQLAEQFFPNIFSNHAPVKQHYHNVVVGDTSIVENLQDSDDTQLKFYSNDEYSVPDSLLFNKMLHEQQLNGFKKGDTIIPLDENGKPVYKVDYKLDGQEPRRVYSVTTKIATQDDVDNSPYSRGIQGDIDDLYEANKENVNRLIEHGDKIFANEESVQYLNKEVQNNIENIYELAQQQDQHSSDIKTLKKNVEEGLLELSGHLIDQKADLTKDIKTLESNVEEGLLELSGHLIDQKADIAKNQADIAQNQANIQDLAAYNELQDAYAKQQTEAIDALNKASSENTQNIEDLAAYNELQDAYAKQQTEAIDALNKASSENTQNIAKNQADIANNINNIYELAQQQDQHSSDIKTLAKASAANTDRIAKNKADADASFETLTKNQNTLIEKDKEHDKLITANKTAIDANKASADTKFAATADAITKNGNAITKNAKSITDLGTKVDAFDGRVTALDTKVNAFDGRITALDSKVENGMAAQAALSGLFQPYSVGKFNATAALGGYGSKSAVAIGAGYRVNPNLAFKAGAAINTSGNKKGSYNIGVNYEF

[5] = biological target: T2, UspA2 of M. catarrhalis strain ATCC 25238 (SEQ ID NO: 1), on bacteria (Moraxella catarrhalis)
T2 chain: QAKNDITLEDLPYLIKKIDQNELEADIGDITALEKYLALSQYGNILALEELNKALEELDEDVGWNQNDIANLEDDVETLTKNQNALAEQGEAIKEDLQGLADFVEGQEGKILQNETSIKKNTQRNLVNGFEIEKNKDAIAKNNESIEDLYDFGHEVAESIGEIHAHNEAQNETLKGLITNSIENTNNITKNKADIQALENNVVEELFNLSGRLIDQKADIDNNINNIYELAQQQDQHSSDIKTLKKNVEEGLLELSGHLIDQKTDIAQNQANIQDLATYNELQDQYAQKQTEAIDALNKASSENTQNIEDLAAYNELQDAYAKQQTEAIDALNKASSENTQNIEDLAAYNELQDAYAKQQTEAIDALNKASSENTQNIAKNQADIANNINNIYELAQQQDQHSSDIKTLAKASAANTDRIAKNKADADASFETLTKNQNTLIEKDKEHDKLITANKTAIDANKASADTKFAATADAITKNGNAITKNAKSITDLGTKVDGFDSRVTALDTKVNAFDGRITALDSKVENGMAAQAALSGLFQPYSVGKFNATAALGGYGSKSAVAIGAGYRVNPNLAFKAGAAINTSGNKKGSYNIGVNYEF

[6] = biological target: UspA2H of M. catarrhalis AERIS isolate 193, on bacteria (Moraxella catarrhalis)
[7] = biological target: UspA2H of M. catarrhalis AERIS isolate 268, on bacteria (Moraxella catarrhalis)
[8] = biological target: UspA2H of M. catarrhalis AERIS isolate 240, on bacteria (Moraxella catarrhalis)
[9] = biological target: UspA1 of M. catarrhalis strain ATCC 43617, on bacteria (Moraxella catarrhalis)

B1: anti-UspA2 monoclonal antibody FHUSPA2/10 (antibody, V domains shown)
VH: EVQLQQSGTVLARPGASVKMSCKASGYSFTSYWMHWVKQRPGQGLEWIGAIYPGNSDTSYNQKFKGKAKLTAVTSASTAYMELSNLTNEDSAVYSCTLLRFLDAYWGQGTLVTVSA
VL: QIVLSQSPAILSASPGEKVTMTCRASSSVSYMHWYQQKPGSSPKPWIYATSNLASGVPARFSGSGSGTSYSLTISRVEAEDAATYYCQQWSSNPPTFGGGSKLEIK
- bactericidal activity (mid-point titer) [1]: 256000 mid-point titer (reciprocal dilution inducing 50% of killing)
- bactericidal activity (mid-point titer) [2]: 114000 mid-point titer (reciprocal dilution inducing 50% of killing)
- bactericidal activity (mid-point titer) [3]: 386000 mid-point titer (reciprocal dilution inducing 50% of killing)
- bactericidal activity (mid-point titer) [4]: 528000 mid-point titer (reciprocal dilution inducing 50% of killing)
- bactericidal activity (mid-point titer) [5]: 1.88e+06 mid-point titer (reciprocal dilution inducing 50% of killing)
- bactericidal activity (mid-point titer) [6]: > 640000 mid-point titer (reciprocal dilution inducing 50% of killing)
- bactericidal activity (mid-point titer) [7]: > 384000 mid-point titer (reciprocal dilution inducing 50% of killing)
- bactericidal activity (mid-point titer) [8]: > 25600 mid-point titer (reciprocal dilution inducing 50% of killing)
- bactericidal activity (mid-point titer) [9]: < 100 mid-point titer (reciprocal dilution inducing 50% of killing)
